Data taken from paper PMC9238363.
Read-outs that look alike come from different tables or passages of the source.

B1: N-Ap (structured_DNA)
DNA: GCTGGATGTCACCGGATTGTCGGACATCGGATTGTCTGAGTCATATGACACATCCAGC
B2: RBD-Ap-1 (structured_DNA)
DNA: CAGCACCGACCTTGTGCTTTGGGAGTGCTGGTCCAAGGGCGTTAATGGACA

Tests used:
Assay in all cases: ELISA
[1] = molecular target: Nucleocapsid-His (SARS-CoV-2, UniProt P0DTC9 1-419)
[2] = molecular target: T1, Spike S2 (SARS-CoV-2, UniProt P0DTC2 686-1213)
[3] = molecular target: T1, Spike S2; remark: listed apart in the source
[4] = molecular target: Spike S1-His (SARS-CoV-2, UniProt P0DTC2 14-685)

| Binder | binding result [1] | binding result [2] | binding result [3] | binding result [4] |
| --- | --- | --- | --- | --- |
| CGCAGCACCCAAGAACAAGGACTGCTTAGGATTGCGATAGGTTCGG (structured_DNA) [RBD-Ap-2] | no binding | no binding |  |  |
| B1 |  |  | no binding | no binding |
| B2 |  | no binding |  |  |
